Measurements: US20180321243A1 (UNIVERSITY OF SASKATCHEWAN, published 2018)

B1: scFv-B7 (scFv)
scFv: SDIQMTQSPSSLSASVGDRVTITCRASQGISNYLAWYQQKPGKAPKLLIYAASSLQSGVPSRFSGSRSGTDFTLTISSLQPEDFATYYCQQVSSWPLTFGQGTKVEIKGGGSGGGSGGGSGGGSEVQLVESGGGLVQPGGSLRLSCAASGFTFSSYGMHWVRQAPGKGLEWVAVISYDGSNKYYADSVKGRFTISRDNSKNTLYLQMNSLRAEDTAVYYCARYPPHGFDYWGQGTLVTVSS
notes: Synthetic human scFv, order VL (IgKV1-16 framework) - (G3S)4 linker - VH (IgHV3-30 framework); Expressed in E. coli BL-21 and purified by protein L chromatography
B2: biotin-scFv-B7 (scFv)
scFv: B1 scFv
modifications: covalently labeled with biotin by N-hydroxysuccinamide amine coupling (EZ-link NHS biotin); labeled residues not stated
notes: held on streptavidin biosensors in the BLI experiments; also called biotin-labeled scFv-B7
B3: scFv-B9 (scFv)
scFv: SDIQMTQSPSSLSASVGDRVTITCRASQGISNYLAWYQQKPGKAPKLLIYAASSLQSGVPSRFSGSRSGTDFTLTISSLQPEDFATYYCQQLYHPPLTFGQGTKVEIKGGGSGGGSGGGSGGGSEVQLVESGGGLVQPGGSLRLSCAASGFTFSSYGMHWVRQAPGKGLEWVAVISYDGSNKYYADSVKGRFTISRDNSKNTLYLQMNSLRAEDTAVYYCARYSPYHYSHSVSYYYYGFDVWGQGTLVTVSS
notes: as for B1
B4: biotin-scFv-B9 (scFv)
scFv: B3 scFv
modifications: covalently labeled with biotin by N-hydroxysuccinamide amine coupling (EZ-link NHS biotin); labeled residues not stated
notes: held on streptavidin biosensors in the BLI experiments; also called biotin-labeled scFv-B9
B5: scFv-B2 (scFv)
scFv: SDIQMTQSPSSLSASVGDRVTITCRASQGISNYLAWYQQKPGKAPKLLIYAASSLQSGVPSRFSGSRSGTDFTLTISSLQPEDFATYYCQQSYYLPLTFGQGTKVEIKGGGSGGGSGGGSGGGSEVQLVESGGGLVQPGGSLRLSCAASGFTFSSYGMHWVRQAPGKGLEWVAVISYDGSNKYYADSVKGRFTISRDNSKNTLYLQMNSLRAEDTAVYYCARWPAHFSHSHSSYYYYGFDVWGQGTLVTVSS
notes: as for B1
B6: biotin-scFv-B2 (scFv)
scFv: B5 scFv
modifications: covalently labeled with biotin by N-hydroxysuccinamide amine coupling (EZ-link NHS biotin); labeled residues not stated
notes: held on streptavidin biosensors in the BLI experiments; also called biotin-labeled scFv-B2

Columns and labels:
[1] = biological target: T1, recombinant human ADAM10 (Biomatik, #RPU140010) (human, UniProt O14672 214-672, limits assumed); assay: phage ELISA, ADAM10 signal over BSA signal
T1 construct: The source and catalogue number are printed for the phage display selections only; also called purified human ADAM10; Disintegrin and metalloproteinase domain-containing protein 10
T1 sequence (looked up): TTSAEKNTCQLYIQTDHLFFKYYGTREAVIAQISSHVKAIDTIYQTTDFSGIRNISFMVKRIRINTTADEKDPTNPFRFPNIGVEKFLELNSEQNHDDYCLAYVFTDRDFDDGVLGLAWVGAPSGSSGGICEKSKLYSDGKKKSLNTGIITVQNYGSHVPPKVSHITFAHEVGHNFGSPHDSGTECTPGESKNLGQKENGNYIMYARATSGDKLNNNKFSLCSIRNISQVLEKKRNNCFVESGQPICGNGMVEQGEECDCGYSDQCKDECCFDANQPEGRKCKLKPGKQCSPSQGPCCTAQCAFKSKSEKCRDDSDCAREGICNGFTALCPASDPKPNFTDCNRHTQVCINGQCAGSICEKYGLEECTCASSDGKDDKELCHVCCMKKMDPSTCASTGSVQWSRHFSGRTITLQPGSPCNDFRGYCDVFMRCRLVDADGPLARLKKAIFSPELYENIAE
Description: (§1) A phage-based ELISA was performed as a semi-quantitative approach to initially validate scFv binding to ADAM10. ADAM10 was adsorbed to ELISA plates and purified phage displaying each of the scFv clones was tested for a binding signal compared to a negative control bovine serum albumin (BSA) protein.
(§2) Similar to the phage display screening methodology, ADAM10 was adsorbed to NUNC MaxiSorp Immunoplates and subsequently incubated with ˜10¹² purified phage displaying an scFv clone. An anti-phage-horseradish peroxidase secondary antibody was then used to generate binding signals for each clone in duplicate, which was measured by colour development at an optical density of 450 nm (O.D. 450 nm) using a tetramethylbenzidine substrate (ThermoScientific, #34028).

[2] = biological target: T2, bovine serum albumin (BSA) (bovine, UniProt P02769 25-607); assay: phage ELISA, scFv displayed on M13 phage, BSA negative control, duplicate 1
T2 construct: Negative control / background protein in the phage ELISA
Description: as §1, §2

[3] = biological target: T2, bovine serum albumin (BSA); assay: phage ELISA, scFv displayed on M13 phage, BSA negative control, duplicate 2
Description: as §1, §2

[4] = biological target: T1, recombinant human ADAM10 (Biomatik, …); assay: BLI (Octet RED384), unlabeled scFv coupled to AR2G biosensors, ADAM10 at 500 and 166 nM, global fit
Description: (§3) BLI sensorgrams for scFv-B2 (A), scFv-B7 (B), and scFv-B9 (C) show real-time binding curves in nanometers of optical thickness versus time (sec). […] A global best fit (solid red line) for each curve was calculated by ForteBio Data Anaylsis 7.1 software and used to determine the kinetic parameters in Table 5.
(§4) Biolayer interferometry was performed with an Octet RED384 instrument (ForteBio). The initial kinetics with unlabeled scFv was performed through coupling to AR2G biosensors per manufacturer instructions (ForteBio). These biosensors were then dipped into ADAM10 (500 nM and 166 nM) to generate the association curves, after which the sensors were moved into buffer alone to generate the corresponding dissociation curves. ForteBio Data Analysis 7.0 software was used for global curve fitting to generate the kinetic data. The kinetic analysis for biotin-conjugated scFvs was performed similarly, except that streptavidin biosensors (ForteBio) were used for immobilization, along with three ADAM10 concentrations (1000 nM, 500 nM, 166 nM). An equal loading (i.e. optical thickness) of the biosensors was performed in both kinetic experiments.

[5] = biological target: T1, recombinant human ADAM10 (Biomatik, …); assay: BLI (Octet RED384), biotin-labeled scFv on streptavidin biosensors, ADAM10 at 1000, 500 and 166 nM, global fit
Description: as §3, with “biotin-scFv-B2” for “scFv-B2”, “biotin-scFv-B7” for “scFv-B7”, “biotin-scFv-B9” for “scFv-B9”, “6.” for “5.”
as §4

[6] = biological target: T1, recombinant human ADAM10 (Biomatik, …); assay: phage ELISA, ADAM10 signal over BSA signal; underrepresentation because OD was above the detectable limit
Description: as §1, §2

T2 sequence (P02769 25-607 limits assumed): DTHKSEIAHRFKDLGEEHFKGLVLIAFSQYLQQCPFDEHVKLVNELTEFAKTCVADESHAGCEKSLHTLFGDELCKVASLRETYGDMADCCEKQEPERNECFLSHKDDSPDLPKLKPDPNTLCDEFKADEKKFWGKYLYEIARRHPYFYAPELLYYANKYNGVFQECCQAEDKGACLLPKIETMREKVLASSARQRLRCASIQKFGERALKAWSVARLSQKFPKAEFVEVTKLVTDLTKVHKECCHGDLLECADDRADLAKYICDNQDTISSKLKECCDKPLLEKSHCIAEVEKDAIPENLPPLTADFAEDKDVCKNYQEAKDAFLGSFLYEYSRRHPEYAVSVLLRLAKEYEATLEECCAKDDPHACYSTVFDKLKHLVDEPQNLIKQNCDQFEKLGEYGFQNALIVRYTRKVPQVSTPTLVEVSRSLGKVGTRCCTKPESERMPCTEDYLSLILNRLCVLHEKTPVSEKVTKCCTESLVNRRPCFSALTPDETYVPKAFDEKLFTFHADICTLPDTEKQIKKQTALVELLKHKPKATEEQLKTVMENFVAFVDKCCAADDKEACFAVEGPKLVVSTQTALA

| Binder | Average fold signal over background [1] [fold] | Absorbance at O.D. 450 nm [2] [OD 450 nm] | Absorbance at O.D. 450 nm [3] [OD 450 nm] | Kd [4] [nM] | koff [4] [s⁻¹] | kon [4] [M⁻¹ s⁻¹] | Kd [5] [nM] | koff [5] [s⁻¹] | kon [5] [M⁻¹ s⁻¹] | Average fold signal over background [6] [fold] |
| --- | --- | --- | --- | --- | --- | --- | --- | --- | --- | --- |
| B1 | 37 | 0.084 | 0.086 | 7.52 | 9.3e-05 | 12400 |  |  |  |  |
| B2 |  |  |  |  |  |  | 21 | 0.00109 | 51900 |  |
| B3 | 42.1 | 0.075 | 0.082 | 9.32 | 0.000115 | 12400 |  |  |  |  |
| B4 |  |  |  |  |  |  | 23.1 | 0.00117 | 50800 |  |
| B5 |  | 0.096 | 0.079 | 14.6 | 0.000187 | 12800 |  |  |  | > 45.7 |
| B6 |  |  |  |  |  |  | 22 | 0.00103 | 46800 |  |
